The supplement of paper PMC10567573

B1: PLK2 (parent)
chain: YAELGQCSVFPATDAPEQFISQVT
B2: ADD1 (parent)
chain: GEGTGSPPKWQIGEQEFEALMRML

Variants of: B1
Assay: protein stability index of a GFP-peptide fusion (GPS, HEK-293T) (PSI 1-6); higher = more stable
Details: c terminus: a fixed tail appended
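Also: lentivirally expressed fusions sorted by FACS into six bins by GFP to DsRed ratio, PSI derived from sequencing read proportions per bin multiplied by bin number.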

Protein stability index of substitutions, site by site:
I20: D 2.75 | M 2.35 | L 2.11 | G 2.69 | H 2.96 | S 3.25 | P 2.24 | Y 1.7 | V 2.84 | E 2.69 | T 2.27 | W 1.27 | N 2.65 | K 2.15 | R 2.53 | F 2.54 | Q 2.31 | A 2.13
Q18: P 2.01 | Y 2.26 | E 2.87 | F 2.15 | D 2.98 | R 1.88 | M 2 | S 2.29 | V 2.49 | T 2.13 | K 2.08 | H 2.19 | N 2.73 | A 1.87 | C 1.84 | L 2 | W 2.21 | G 2.82 | I 2.02
S21: V 1.9 | C 1.53 | Y 1.57 | F 1.82 | N 2.14 | R 1.76 | E 2.75 | P 2.41 | T 2.49 | G 2.26 | W 2.92 | K 2.35 | A 1.64 | M 3.09 | Q 1.89 | L 2.59 | D 2.72 | H 1.8 | I 2.64
F19: V 2.28 | C 1.96 | Y 1.94 | P 2.4 | A 2.19 | S 2.01 | L 2.36 | K 2.97 | D 2.87 | E 3.01 | T 2.7 | I 2.28 | Q 2.81 | N 2.92 | M 2.43 | W 1.9 | H 3.16 | R 3.85 | G 2.38
E17: S 2.06 | T 2.6 | W 3.35 | R 1.62 | V 1.78 | Q 2.9 | Y 2.64
T24: L 2.21 | G 2.31 | N 2.92 | P 2.08 | Y 2 | H 2.57 | V 1.9 | A 1.59 | K 2.6 | Q 2.68 | I 2.48 | F 1.62 | M 1.73 | E 2.33 | R 2.14 | D 2.64 | C 1.31 | S 2.1
V23: E 2.75 | S 2.96 | T 2.48 | L 1.91 | I 1.74 | F 1.89 | G 2.52 | K 2.38 | W 2.39 | D 3.06 | A 2.39 | M 2.29 | P 2.81 | Y 1.98 | R 2.54 | H 1.98 | N 2.58 | C 2.95 | Q 2.56
Q22: R 2.08 | V 2.81 | P 2.47 | F 1.73 | L 1.7 | E 3.2 | W 2.09 | Y 1.86 | I 1.52 | D 2.75 | G 2.36 | K 1.77 | A 1.94 | M 1.73 | T 2.1 | H 2.27 | C 1.72 | N 2.31 | S 2.06

Variants of: B2
Assay: as above
Details: c terminus: a fixed tail appended

Protein stability index: each site, then its substitutions
G5: H 3.12 | F 2.46 | Y 3.02 | T 3 | I 2.74 | S 3.01 | R 2.77 | D 3.15 | W 2.21
Q15: V 2.39 | Y 2.25 | P 3.51 | I 2.49 | C 2.9 | W 1.86 | F 2.33 | T 3.09 | K 2.47
E18: P 3.39 | D 3.69 | V 2.3 | K 2.9 | F 1.93 | C 2.82 | G 2.69 | M 2.95 | H 2.1 | A 2.76 | S 3.17
L20: E 4.77 | Y 3.97 | F 3.07 | R 4.19 | T 3.63 | V 3.48 | K 4.4 | G 4.67 | P 4.45 | W 3.61 | D 4.8
G1: W 2.54 | A 3.28 | D 3.66 | R 3.26 | E 3.57 | V 2.49 | P 3.26 | Y 3.13 | M 2.71 | S 2.99 | I 2.92
M21: W 2.83 | Y 3.09 | L 2.82 | V 3.11 | C 3.18 | G 3.87 | F 3.47
E14: K 3.61 | Y 1.8 | T 2.79 | G 2.92 | M 2.72 | F 2.1 | W 1.97
P7: M 2.33 | I 2.46 | A 2.92 | V 2.62 | R 2.63 | N 2.88 | F 3.61
E2: W 2.8 | Q 3.53 | C 3.14 | P 3.06 | L 3.15 | D 2.79
S6: D 3.25 | V 2.46 | L 3.03 | E 3.45 | T 2.68 | Y 2.59 | C 2.75 | R 3.75 | Q 2.85
A19: T 3.25 | F 2.67 | Y 3.09 | N 4.03 | K 2.69 | M 2.7
W10: K 3.57 | D 4.58 | M 3.27 | Q 3.5 | I 2.86 | V 3.67 | A 3.71 | N 4.19
K9: Q 3.25 | F 2.8 | R 3.07 | A 3.76
G3: A 3.42 | F 2.89 | N 3.51 | W 2.49 | K 2.64 | S 2.87 | D 3.19 | L 3.45 | P 3.14 | H 2.94
P8: A 3.07 | D 3.84 | H 2.56 | Y 2.49 | N 3.24 | I 2.31 | M 2.63 | V 2.2 | Q 2.79 | E 3.66
Q11: D 3.82 | C 2.76 | G 2.66 | T 3.51 | H 3.23 | Y 2.57
F17: L 3.37 | G 4.19 | A 3.92 | P 4.79 | E 4.52 | V 3.84 | S 4.28
E16: N 3.1 | F 1.59 | K 2.53 | Q 2.37 | D 3.52 | H 2.8 | L 1.4 | G 2.5 | S 3.06 | R 2.51
T4: Q 3.08 | I 2.75 | C 2.94 | M 3.01 | R 3.44 | P 3.06
R22: F 2.79 | C 2.21 | Q 3.3 | A 3.18 | T 3 | W 2.2 | G 3.09 | P 3.75 | I 2.49 | H 2.92
I12: G 4.08 | K 3.03 | M 3.38 | D 4.45 | C 3.27 | F 3.09 | S 3.83 | A 3.9 | Q 4.11
M23: G 4.56 | Y 2.96 | A 3.58 | N 4.8 | H 3.1 | L 2.74 | R 4.26 | P 4.76
G13: C 3.22 | T 2.74 | D 3.65 | A 3.85 | I 2.92 | R 2.99
L24: W 3.57 | S 3.92 | R 4.34 | T 3.8 | H 4.32 | C 3.52 | Y 2.68 | V 3.06 | A 3.83
